Values of other authors as cited in US7744870B1, “ST receptor binding compounds and methods of using the same” (Thomas Jefferson University, priority 1993, dated 2010).
Ends that are not written are not given here.

How the values were obtained:
[1] = target: T1, ST receptor (Homo sapiens, UniProt P25092); conditions: reported in cited literature; cited from earlier work
T1 construct: a preparation of ST receptors (e.g. intestinal membranes from rat intestine, human intestine, T84 cells); from tissue; host or cells: human intestinal membranes

[2] = target: guanylate cyclase (Homo sapiens, UniProt P25092); conditions: relative to native ST; cited from earlier work
Chain of guanylate cyclase (P25092 24-1073): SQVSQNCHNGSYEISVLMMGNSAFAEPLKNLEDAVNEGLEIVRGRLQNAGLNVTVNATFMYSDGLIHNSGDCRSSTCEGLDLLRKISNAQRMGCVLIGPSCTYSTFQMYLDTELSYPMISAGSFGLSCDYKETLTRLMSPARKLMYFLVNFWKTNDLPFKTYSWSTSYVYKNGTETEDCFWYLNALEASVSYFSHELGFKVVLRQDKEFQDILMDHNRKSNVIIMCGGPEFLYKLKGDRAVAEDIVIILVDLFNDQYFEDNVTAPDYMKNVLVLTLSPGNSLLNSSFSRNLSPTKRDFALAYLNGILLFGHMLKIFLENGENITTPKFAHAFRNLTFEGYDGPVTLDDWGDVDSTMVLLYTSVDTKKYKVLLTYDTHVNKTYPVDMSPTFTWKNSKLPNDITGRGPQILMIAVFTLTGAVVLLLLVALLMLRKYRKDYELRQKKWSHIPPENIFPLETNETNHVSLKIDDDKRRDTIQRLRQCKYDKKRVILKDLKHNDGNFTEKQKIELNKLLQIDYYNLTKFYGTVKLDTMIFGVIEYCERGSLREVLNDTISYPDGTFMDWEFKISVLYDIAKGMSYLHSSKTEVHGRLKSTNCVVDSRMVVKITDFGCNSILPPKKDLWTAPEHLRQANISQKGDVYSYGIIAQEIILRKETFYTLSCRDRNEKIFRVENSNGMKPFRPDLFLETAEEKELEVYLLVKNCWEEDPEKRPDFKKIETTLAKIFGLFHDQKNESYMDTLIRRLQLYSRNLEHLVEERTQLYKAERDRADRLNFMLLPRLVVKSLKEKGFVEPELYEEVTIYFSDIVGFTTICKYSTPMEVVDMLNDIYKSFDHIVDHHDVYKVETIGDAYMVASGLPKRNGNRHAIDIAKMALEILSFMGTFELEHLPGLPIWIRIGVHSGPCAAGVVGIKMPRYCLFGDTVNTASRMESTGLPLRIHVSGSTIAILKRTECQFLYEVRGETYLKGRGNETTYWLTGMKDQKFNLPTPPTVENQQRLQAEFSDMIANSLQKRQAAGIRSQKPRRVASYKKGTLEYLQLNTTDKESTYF

T1 sequence (P25092 24-1073): as above

| Substance | binds to the ST receptor [1] | activates guanylate cyclase at a level less than native ST [2] |
| --- | --- | --- |
| SEQ ID NO:47: 16 amino acid peptide derived from V. cholerae (IDCCICCNPACFGCLN; listed as Vibrio cholerae) | binds to the ST receptor | – |
| SEQ ID NO:48: 18 amino acid peptide derived from Y. enterocolitica (SSDWDCCDVCCNPACAGC; listed as Yersinia enterocolitica) | binds to the ST receptor | – |
| guanylin (PGTCEICAYAACTGC; ends and bridges not checked; cysteine pairing not given here; UniProt Q02747 101-115, looked up) | binds to ST receptors | 10- to 100 fold |
